From IntAct's records for PubMed 23022437

B1: Sodium channel protein type 7 subunit alpha (Mus musculus), B1AYL1 (parent)
chain: MLTSPEPKGLVPFTTESLELIENHIAKKCNEDPEEEEGLKPSRNLEAGKRLPIPYGTLPRGTVSEPLEDVDPYYYVKRNTFMVLNRSRVIFRFNAVSIFCTLSPLNSLRRAAIKALVHPLFRLLILISVLTDSILMCMSNLPEWILAIENTLLGIYAFEILVKVIARGIWAGSFSFLGDLWNWLDFSVTLFELITRFSPLSSFLMLKTIRTFRILKIIPLNHGLQSIVMTLAQCLKKLFGAIALALFFLAVFSLLGMGLFMGNLKHKCLRWPEENENETLHNRTGSLNYSPERINFYYMEGAKYALLCGNRTDAGQCPEGYVCVKEGTNPDNGFTSFDNFGWSLLAMFRLMTQDYPELLYHQILYASGKVYMIFFVMISFWFAFYLTSLFLGILTMTYEKEKQRACEESGGLDPKCQQTVKELDEENDAAEMETTQIEMKKRSPTSINTTLDILEDTTLGHREEPETSRKKCPICWHKFIKTCFIWKCSPCWVKLNEFADRVITHPLADLFLVICIVLNICFLALEHFPMSEELRSLLHVGNLVFIGIYTIEMILKIIAMHPYGYFQISWNIFDSILVVLELTEILLADVEGLAVLITVPLIFIKLGKYGPPFKSLMRILGSSLMALKDLVLLLCIFVYFSAVFGMKLFGRSYKDCVCHIKEDCQPQRWHMSDFLHAYMTVFRILCGEWIETLWECMEVAGQAWCIPFYMMVILIGNLLILYLFVTLVSSFSYYDATSEVNKEAKNLQLAMARIKSGINSMLLKLMCTERSVPTEATDQICDPSVKENISGHTLSELSNTQTFLRYKDQSSSTEKTPVTESESQSLIASPSASETVPIASGESDIENLDNKETRSKSGNGGSKEKMKQSSSSECSTVDIAISEEEEMVYEHEKSKLHKNGYERKSSTGQISRESRNGKIWKNIRKTCCKIVENSWFECFIGLVTLLCTGTLALEDIYIDQRKTTKILLEYADMIFAYIFILEMLLKWVAYGFKAFFSNNWYKLDFMVVIVFCLSLIGKTREDLNPLTSIKFLRALRVLSQFERMKVVLRALIKTTLPTVSVFLVCLMIWLLFSVIGVQLFAGKFYECIDPTKGERFPVFEVMNKSQCEKLLFNESMPWENAKLNFDNVGNGFLSLLQVATFNGWISIMNSAIDSVGVNMQPSFEYNLYMYSYFIIFVIFGLFLPLCMLIGVIIRNFNKQKIKQGGSNIFITVKQKKQYRALKKLLYADVQKPTPRPRNKFQGFLFDLVTHRVFNVIIILLICFQATTIMIQKDEQSPQMETAIFWMNSIFVMLFTLECILKLTAFRCHYFTSAWNVHDFMVVIFSITGLLLPLTIGQYFVPPSLVQLILLSRVIHILRPGKGPKVFHDLMLPLILALPALLNISLLIFLVMFIYAIFGMYNFAYVKKEAGINDVSNFETFGSSMLCLFQVTTFSGWDGMLDAIFNSQWSDCDPDKINPGTQVKGDCGSPSVGISYFVSYILISWLIIVNMYIVLIMEFLSIPSQKKSRTLSEDDFRRFFRVWNRFDPDRTQYIDSSKLSDFAAALDPPLFMAKPNKGQLVAMDLPMAAGDRIHCLDILLAFTKRVMGKDERVEKILSEIESGFMLANPFKITYEPITTTLKRKQEAVSATIIQRAYKSYRLRQNDKNVSDTPAIDDRRDDLTSKGAHSGKIEEKASIQTQI

Variants of: B1
Conditions: with dlg1_mouse Dlg1, Q811D0
dlg1_mouse Dlg1, Q811D0, sequence (Q811D0 whole entry): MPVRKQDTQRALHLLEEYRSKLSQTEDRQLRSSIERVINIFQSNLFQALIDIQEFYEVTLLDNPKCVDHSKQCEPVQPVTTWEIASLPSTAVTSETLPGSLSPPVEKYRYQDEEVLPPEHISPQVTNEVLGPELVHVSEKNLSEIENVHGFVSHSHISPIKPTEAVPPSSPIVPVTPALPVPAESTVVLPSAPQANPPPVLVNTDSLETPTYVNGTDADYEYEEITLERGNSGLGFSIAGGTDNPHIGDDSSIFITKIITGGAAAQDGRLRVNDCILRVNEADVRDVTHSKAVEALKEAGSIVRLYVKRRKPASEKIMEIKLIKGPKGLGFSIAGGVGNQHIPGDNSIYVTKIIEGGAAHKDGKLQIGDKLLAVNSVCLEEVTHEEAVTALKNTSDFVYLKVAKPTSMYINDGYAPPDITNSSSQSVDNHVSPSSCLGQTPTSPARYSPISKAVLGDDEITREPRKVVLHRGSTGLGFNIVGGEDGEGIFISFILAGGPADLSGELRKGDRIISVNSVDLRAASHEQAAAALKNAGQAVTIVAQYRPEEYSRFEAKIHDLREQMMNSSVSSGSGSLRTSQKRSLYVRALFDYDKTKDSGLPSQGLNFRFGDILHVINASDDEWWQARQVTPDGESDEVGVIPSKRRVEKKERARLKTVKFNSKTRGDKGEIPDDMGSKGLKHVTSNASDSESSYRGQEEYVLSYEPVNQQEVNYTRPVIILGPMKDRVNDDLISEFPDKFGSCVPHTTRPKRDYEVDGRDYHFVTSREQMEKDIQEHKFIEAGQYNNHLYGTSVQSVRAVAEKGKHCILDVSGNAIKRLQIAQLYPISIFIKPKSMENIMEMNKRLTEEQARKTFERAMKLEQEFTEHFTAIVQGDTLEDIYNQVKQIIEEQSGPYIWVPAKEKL

effect of a mutation on the interaction	Variant
disrupting interaction	T1679A

Variants of: B1
Conditions: with dlg1_rat Dlg1, Q62696
dlg1_rat Dlg1, Q62696, sequence (Q62696 whole entry): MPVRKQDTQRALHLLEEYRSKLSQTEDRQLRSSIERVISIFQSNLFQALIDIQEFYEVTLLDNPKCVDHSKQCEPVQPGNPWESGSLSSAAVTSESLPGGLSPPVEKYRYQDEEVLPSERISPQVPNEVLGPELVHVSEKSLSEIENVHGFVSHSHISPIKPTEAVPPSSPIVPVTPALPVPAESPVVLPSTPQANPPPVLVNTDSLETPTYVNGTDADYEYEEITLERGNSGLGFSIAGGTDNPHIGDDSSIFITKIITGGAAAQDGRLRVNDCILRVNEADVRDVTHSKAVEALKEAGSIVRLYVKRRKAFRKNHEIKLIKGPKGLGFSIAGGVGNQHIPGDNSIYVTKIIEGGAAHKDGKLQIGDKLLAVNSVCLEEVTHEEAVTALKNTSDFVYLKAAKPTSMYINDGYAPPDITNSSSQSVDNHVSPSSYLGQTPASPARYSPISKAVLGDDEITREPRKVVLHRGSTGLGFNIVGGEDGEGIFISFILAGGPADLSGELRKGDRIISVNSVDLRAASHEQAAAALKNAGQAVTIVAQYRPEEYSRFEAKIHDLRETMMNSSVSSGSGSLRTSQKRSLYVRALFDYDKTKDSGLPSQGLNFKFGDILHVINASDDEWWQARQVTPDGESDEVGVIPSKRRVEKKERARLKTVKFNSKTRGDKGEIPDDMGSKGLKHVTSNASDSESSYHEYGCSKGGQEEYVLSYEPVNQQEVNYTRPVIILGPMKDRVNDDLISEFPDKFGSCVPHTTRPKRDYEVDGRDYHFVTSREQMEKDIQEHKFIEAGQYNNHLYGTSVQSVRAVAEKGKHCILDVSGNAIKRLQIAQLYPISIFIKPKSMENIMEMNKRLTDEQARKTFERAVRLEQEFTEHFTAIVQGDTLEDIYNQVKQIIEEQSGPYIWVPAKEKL

effect of a mutation on the interaction	Variant
disrupting interaction	T1679A
